Usually Kd stands for a measure of binding affinity in units of concentration. High values mean a looser complex, low ones a tighter complex.

The target in the assay is GST-fused PINCH-1 LIM5 domain (residues 249-325) (human), P48059. Put plainly: BLI; BLItz; GST-fused PINCH protein or GST (0.05 mg/ml) loaded on anti-GST biosensor, Rsu-1 WT or mutant in the mobile phase; 20 mM Tris pH 7.5, 150 mM NaCl, 1 mg/ml BSA, 0.05% Tween-20; 1:1 global fit; at least three measurements. As to conditions: remark: other sources report otherwise. In general terms: Biolayer interferometry detects binding as a change in optical thickness at a sensor tip.
Sequence of GST-fused PINCH-1 LIM5 domain (residues 249-325) (human), P48059 (P48059 249-325): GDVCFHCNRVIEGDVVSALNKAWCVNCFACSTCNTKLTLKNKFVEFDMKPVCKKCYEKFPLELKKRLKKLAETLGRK

B1: Rsu-1 triple mutant R2W (Phe71Arg, Arg165Trp, Asp166Arg), Q15404 1-277 (natural protein)
chain: MSKSLKKLVEESREKNQPEVDMSDRGISNMLDVNGLFTLSHITQLVLSHNKLTMVPPNIAELKNLEVLNFRNNQIEELPTQISSLQKLKHLNLGMNRLNTLPRGFGSLPALEVLDLTYNNLSENSLPGNFFYLTTLRALYLSDNDFEILPPDIGKLTKLQILSLWRNDLISLPKEIGELTQLKELHIQGNRLTVLPPELGNLDLTGQKQVFKAENNPWVTPIADQFQLGVSHVFEYIRSETYKYLYGRHMQANPEPPKKNNDKSKKISRKPLAAKNR
Molecule B1 returned a Kd of 33.3 µM.

Source of the values: article PMC8141872.
